{"source": "paper doi:10.1101/2025.07.10.664112", "about": "(bioRxiv, 2025)", "proteins": {"B1": {"name": "Heterogeneous nuclear ribonucleoprotein A2/B1 (hnRNPA2B1), full length, tag-free (natural protein, human, UniProt P22626 1-353, looked up)", "chain": "MEKTLETVPLERKKREKEQFRKLFIGGLSFETTEESLRNYYEQWGKLTDCVVMRDPASKRSRGFGFVTFSSMAEVDAAMAARPHSIDGRVVEPKRAVAREESGKPGAHVTVKKLFVGGIKEDTEEHHLRDYFEEYGKIDTIEIITDRQSGKKRGFGFVTFDDHDPVDKIVLQKYHTINGHNAEVRKALSRQEMQEVQSSRSGRGGNFGFGDSRGGGGNFGPGPGSNFRGGSDGYGSGRGFGDGYNGYGGGPGGGNFGGSPGYGGGRGGYGGGGPGYGNQGGGYGGGYDNYGGGNYGSGNYNDFGNYNQQPSNYGPMKSGNFGGSRNMGGPYGGGNYGPGGSGGSGGYGGRSRY"}}, "biological_target": "the molecule itself", "experiment": "mass photometry", "note": "Where “and” joins values, the source holds several entries; their conditions need not be identical. Equal values may be shown once."}
{"protein": "B1", "values": [{"measurement": "stoichiometry N", "value": "2 and 4"}]}
